Consider two substances from publication PMC11603075.

The test has as its target KDM4E (human).

Consider “H2a(1–20)R3me2a (from UniProt P0C0S8 2-21) (peptide)”, for which the KM of KDM4E catalysed demethylation, formaldehyde dehydrogenase (FDH) coupled assay amounted to 5.18 µM. With “H3(1–21)R2me2a (from UniProt P68431 2-22) (peptide)” the figure was 20.7 µM.
